Measured values taken from paper PMC9355967.

Experiments:
[1] = biological target: FLAG-tagged full-length AFDN (mouse) (UniProt Q9QZQ1); assay: co-IP; HEK 293T cells co-transfected; anti-FLAG IP on Protein G sepharose, Western blot with anti-GFP or antibodies to the endogenous protein; TX100 buffer (20 mM Tris pH 7.5, 150 mM NaCl, 1% NP-40, 1% Triton X-100, 5 mM MgCl2 for GTPases); also after FastAP phosphatase treatment of lysates; with or without co-expressed GTPases (densitometry in Fig. 4g)
Chain of FLAG-tagged full-length AFDN (mouse) (Q9QZQ1 whole entry, the tested form may be a part): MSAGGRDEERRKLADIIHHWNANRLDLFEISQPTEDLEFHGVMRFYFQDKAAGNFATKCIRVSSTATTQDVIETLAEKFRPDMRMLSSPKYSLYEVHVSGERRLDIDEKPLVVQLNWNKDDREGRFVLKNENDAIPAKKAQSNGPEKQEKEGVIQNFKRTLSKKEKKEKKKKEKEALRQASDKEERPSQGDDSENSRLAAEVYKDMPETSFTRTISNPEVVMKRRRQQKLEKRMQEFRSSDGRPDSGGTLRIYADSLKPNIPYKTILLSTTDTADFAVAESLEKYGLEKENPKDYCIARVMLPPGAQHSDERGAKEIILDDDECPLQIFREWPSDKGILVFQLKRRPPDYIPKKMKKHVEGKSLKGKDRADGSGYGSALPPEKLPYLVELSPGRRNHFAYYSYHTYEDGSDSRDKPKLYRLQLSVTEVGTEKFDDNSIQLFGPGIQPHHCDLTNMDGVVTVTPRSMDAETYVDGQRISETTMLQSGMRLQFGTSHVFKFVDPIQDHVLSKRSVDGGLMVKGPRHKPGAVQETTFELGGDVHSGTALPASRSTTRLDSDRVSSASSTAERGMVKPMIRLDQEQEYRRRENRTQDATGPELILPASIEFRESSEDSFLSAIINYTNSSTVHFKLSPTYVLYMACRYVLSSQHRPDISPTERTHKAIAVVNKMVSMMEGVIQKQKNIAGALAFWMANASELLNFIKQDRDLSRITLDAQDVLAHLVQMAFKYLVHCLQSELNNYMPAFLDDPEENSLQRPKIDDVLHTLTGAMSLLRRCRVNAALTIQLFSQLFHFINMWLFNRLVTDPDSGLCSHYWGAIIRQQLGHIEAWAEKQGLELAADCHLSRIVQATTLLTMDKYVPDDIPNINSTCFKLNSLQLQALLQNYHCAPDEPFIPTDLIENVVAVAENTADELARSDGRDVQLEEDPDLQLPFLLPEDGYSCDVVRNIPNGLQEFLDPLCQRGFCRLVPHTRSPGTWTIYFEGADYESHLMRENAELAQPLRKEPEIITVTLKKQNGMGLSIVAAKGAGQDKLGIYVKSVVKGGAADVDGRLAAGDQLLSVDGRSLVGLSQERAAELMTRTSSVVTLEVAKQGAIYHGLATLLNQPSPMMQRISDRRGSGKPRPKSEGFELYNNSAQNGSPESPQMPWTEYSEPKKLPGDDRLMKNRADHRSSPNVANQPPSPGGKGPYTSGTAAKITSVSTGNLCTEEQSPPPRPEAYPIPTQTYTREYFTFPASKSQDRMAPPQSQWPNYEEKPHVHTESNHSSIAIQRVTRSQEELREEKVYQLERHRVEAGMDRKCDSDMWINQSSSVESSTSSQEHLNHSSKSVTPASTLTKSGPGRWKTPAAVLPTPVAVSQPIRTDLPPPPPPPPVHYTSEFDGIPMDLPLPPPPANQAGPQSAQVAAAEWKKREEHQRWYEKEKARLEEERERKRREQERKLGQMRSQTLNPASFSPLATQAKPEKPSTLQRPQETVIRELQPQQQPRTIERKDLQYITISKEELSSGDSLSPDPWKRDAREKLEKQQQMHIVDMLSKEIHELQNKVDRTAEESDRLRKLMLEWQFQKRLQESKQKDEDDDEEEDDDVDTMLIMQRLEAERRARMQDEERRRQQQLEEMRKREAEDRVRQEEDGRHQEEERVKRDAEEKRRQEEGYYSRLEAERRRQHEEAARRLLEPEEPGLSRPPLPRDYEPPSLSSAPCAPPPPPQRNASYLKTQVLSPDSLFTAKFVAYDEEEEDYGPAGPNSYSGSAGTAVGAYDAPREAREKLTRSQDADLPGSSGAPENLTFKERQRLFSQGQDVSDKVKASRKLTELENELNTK

[2] = biological target: purified AFDN FHA domain Δex9 (mouse); assay: ITC; MicroCal ITC200, 25 °C, 20 mM Tris-HCl pH 7.5, 150 mM NaCl, 1 mM DTT

Chain of purified SCRIB PDZ1 domain (718-820) (Q14160 718-820): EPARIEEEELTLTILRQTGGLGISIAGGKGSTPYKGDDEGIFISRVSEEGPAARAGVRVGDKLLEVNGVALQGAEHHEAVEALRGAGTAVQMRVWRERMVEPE

Substance	fold increase of SCRIB co-precipitated with AFDN, KRAS-G12V co-expressed, against wild-type KRAS [1] [fold]	fold increase of SCRIB co-precipitated with AFDN, RAP1B-G12V co-expressed, against wild-type KRAS [1] [fold]	fold increase of SCRIB co-precipitated with AFDN, RAP2C-G12V co-expressed, against wild-type KRAS [1] [fold]	Kd [2] [µM]
EGFP-tagged full-length SCRIB (from UniProt Q14160 1-1655) (natural protein)	8	1.7	2.6	–
purified SCRIB PDZ1 domain (718-820) (from UniProt Q14160 718-820) (domain or fragment)	–	–	–	22.9
